# Source: patent US20120328625A1 (AstraZeneca / MedImmune, published 2012)
# Changes are numbered by the printed parent chain.
# B1: 1A5 (antibody, V domains shown)
# VH: EVQVVESGGDLIQPGGSLRLSCVASGFTVSSNYMNWVRQAPGKGLEWVSVIYSGGNTYYADSVKGRFTISRDNSKNTLYLQMNSLRAEDTAVYYCARDSSVVVGLGYFDLWGRGTLVTVSS
# VL: SYELTQPPSVSVSPGQTASITCSGDKLGANYASWYQQKPGQSPVLVIFQDTKRPSGIPERFSGSNSGNTATLTISGTQAMDEADYYCQAWDFSTVIFGGGTKLTVL
# notes: fully human XenoMouse hybridoma antibody; tested as hybridoma supernatant and as purified antibody; also called MAb 1A5
# B2: 1A12 (antibody, V domains shown)
# VH: QVYLVESGGGVVQPGRSLRLSCAASGFTFSSYGMHWVRQAPGKGLEWVAVIWYDGSNEYYADSVKGRFTISRDNSKNTLYLQMNSLRAEDTAVYYCARDLYYYGSGSPFDYWGQGTLVTVSS
# VL: EIVMTQSPATLSVSPGERATLSCRASQSVSSNLAWYQQKPGQAPRLLIFGVSIRATGIPARFSGSGSGTEFTLTISSLQSEDFAVYYCQQYNDWPRPGFGGGTKVEIK
# notes: fully human XenoMouse hybridoma antibody; tested as hybridoma supernatant and as purified antibody; also called MAb 1A12
# B3: 1G12 (antibody, V domains shown)
# VH: B2 VH with Y3Q, S31T, E58K, K65N, A88G
# VL: B2 VL with A19V, F49Y, N92D, D93N
# notes: fully human XenoMouse hybridoma antibody; tested as hybridoma supernatant and as purified antibody; also called MAb 1G12
# B4: 1H10 (antibody, V domains shown)
# VH: B2 VH with Y3Q, Y53N, Y111D
# VL: B2 VL with A9G, S30G, I58V
# notes: fully human XenoMouse hybridoma antibody; tested as hybridoma supernatant and as purified antibody; also called MAb 1H10
# B5: 1H8 (antibody, V domains shown)
# VH: QVQLQESGPGLVKPSETLSLTCTVSGGSISSYYWTWIRQPPGKGLEWIGYIYYSGSTNYNPSLKSRVTISVDTSKNQFSLKLSSVTAADTAVYYCARDRLLYGMDVWGQGTTVTVSS
# VL: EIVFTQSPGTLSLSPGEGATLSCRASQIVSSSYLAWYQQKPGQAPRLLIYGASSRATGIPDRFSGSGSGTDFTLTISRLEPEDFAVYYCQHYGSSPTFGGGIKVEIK
# notes: fully human XenoMouse hybridoma antibody; also called MAb 1H8
# B6: 1H12 (antibody, V domains shown)
# VH: QVQLVQSGAEVKKPGASVKVSCKASGYTFTGYYMHWVRQAPGQGLEWVGWFNPNSGGTNCAQKFQGRVTMTRDTSISTAYMELSRLRSDDTAVYYCAREAVESYYYGLDVWGQGTTVTVSS
# VL: QSVVTQPPSASGTPGQRITISCSGSSSNIGSNYVYWYHQLPGSAPNLLIYRNNQRPSGVPDRFSGSKSGTSASLAISGLRSEDEADYFCAVWDDSLRGVVFGGGTKLTVL
# notes: fully human XenoMouse hybridoma antibody; tested as hybridoma supernatant and as purified antibody; also called MAb 1H12
# B7: 4B6 (antibody, V domains shown)
# VH: B2 VH with Y3Q, S31T
# VL: B2 VL with V51I, K104R
# notes: fully human XenoMouse hybridoma antibody; tested as hybridoma supernatant and as purified antibody; also called MAb 4B6
# B8: 1F4 (antibody, V domains shown)
# VH: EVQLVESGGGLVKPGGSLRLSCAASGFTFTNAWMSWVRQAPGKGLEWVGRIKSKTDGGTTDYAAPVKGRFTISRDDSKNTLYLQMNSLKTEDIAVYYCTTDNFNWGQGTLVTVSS
# VL: EIVMTQSPATLSVSPGERATLSCRASQSISSNLAWYQQKPGQAPRLLIYGASTRATGIPARFSGSGSGTEFTLTISSLQSEDFAVYFCQQYHSWWTFGQGTKVEIQ
# notes: fully human XenoMouse hybridoma antibody; tested as hybridoma supernatant and as purified antibody; also called MAb 1F4
# B9: 1C8 (antibody, V domains shown)
# VH: B1 VH with V4L, D10G, V23A, A24V, Y33C, N56K, Y58A, Y79C, V101M
# VL: B1 VL with Q16L, A29Y, N30K, F48Y, T51I, F92S, I96V
# notes: fully human XenoMouse hybridoma antibody; tested as hybridoma supernatant and as purified antibody; also called MAb 1C8
# Target: T1, biotinylated human Shh (human, UniProt Q15465 24-197, limits assumed, biotinylated)
# T1 construct: also called biotin-Shh; immobilized biotinylated Shh
# Experiment: ELISA, hybridoma supernatant on neutravidin-captured biotin-Shh
# Description: After blocking with 1% milk in PBS, 40 μl of 500 ng/ml biotinylated Shh in 1×PBS, 1% milk (wt/vol) was added to each well and incubated for 1 hr at RT. Hybridoma supernatants (10 μl/well) were added to 40 μl of 1% milk, 0.05% Tween-20 in PBS per well and incubated 1 hr at RT. Following washing and incubation with secondary antibody (100 ng/ml goat-anti-human IgG Fc HRP), wells were developed with TMB substrate and subsequently quenched with 1 N HCl.
row,Binder,OD450
1,B1,6 OD450
2,B2,4.09 OD450
3,B3,2.49 OD450
4,B4,3.46 OD450
5,B5,4.04 OD450
6,B6,3.73 OD450
7,B7,5.14 OD450
8,B8,6 OD450

# Target: T2, full length human Shh expressed on the cell surface (human, UniProt Q15465 24-462)
# T2 construct: whole, on cells; also called native human Shh; Shh-FL
# Experiment: flow cytometry, transfected against parental 293T cells
# Description: (§1) Finally, binding of antibody in exhaust hybridoma supernatants to native Shh was assessed using flow cytometry. […] Transfected or parental cells were seeded into the plates with V-bottom wells (50,000 cells/well). Exhaust supernatants (50 μl of a 1:10 dilution) were added to each well and incubated at 4° C. for 1 hr. […] It was added to a concentration of 2 μg/ml in a volume of 50 μl. Cells were washed and 50 μl of a 2 μg/ml solution of secondary antibody (Cy5-labeled goat-anti-human IgG or Cy5-labeled goat-anti-rabbit IgG) were added to each well. 7AAD was added to a concentration of 5 μg/ml and the mixture was incubated for 30 min at RT. The mean fluorescence for each sample was then determined using flow cytometry.
row,Binder,ratio
1,B1,70.5
2,B2,78.1
3,B3,2.2
4,B4,40.9
5,B5,44.1
6,B6,9.1
7,B7,50.2
8,B9,33.3
9,B8,63.8

# Target: T2, full length human Shh expressed on the …
# Experiment: cell-based or functional assay
Binder,"% Inhibition of Gli1 reporter, Co-Culture N = 1, 20 µg/ml","% Inhibition of Gli1 reporter, Co-Culture N = 2, 20 µg/ml","% Inhibition of Gli1 reporter, Co-Culture N = 3, 20 µg/ml"
B1,25%,20%,20%
B2,58%,59%,22%
B3,35%,43%,28%
B4,47%,68%,4%
B5,32%,25%,36%
B6,8%,15%,13%
B7,44%,76%,22%
B9,26%,10%,23%
B8,31%,18%,28%

# Target: T3, Shh-N in conditioned medium (human, UniProt Q15465 24-197, N-terminal palmitoyl modification; lacks the C-terminal cholesterol moiety)
# Experiment: cell-based or functional assay
Binder,"% Inhibition of Gli1 reporter, Conditioned Media N = 1, 20 µg/ml","% Inhibition of Gli1 reporter, Conditioned Media N = 2, 20 µg/ml"
B1,35%,34%
B2,18%,57%
B3,23%,44%
B4,48%,24%
B5,34%,48%
B6,-5%,-5%
B7,73%,43%
B9,-1%,8%
B8,2%,16%

# Target: T3, Shh-N in conditioned medium
# Experiment: cell-based or functional assay
# Remark: another data set of the same source
row,Binder,"IC50, inhibition of osteoblast differentiation (alkaline phosphatase) of C3H10T1/2 cells"
1,B1,4.8 nM
2,B2,4.6 nM
3,B3,7.1 nM
4,B4,4.4 nM
5,B5,5.7 nM
6,B7,3.3 nM

# Target: T2, full length human Shh expressed on the …
# Experiment: flow cytometry, exhaust hybridoma supernatant 1:10, 293T cells transiently expressing human Shh
# Description: as §1
row,Binder,X Geo Mean (Transients)
1,B1,265
2,B2,290
3,B3,8.3
4,B4,150
5,B5,165
6,B6,34.4
7,B7,196
8,B9,118
9,B8,219

# Target: T2, full length human Shh expressed on the …
# Experiment: cell-based or functional assay
# Remark: another data set of the same source
Binder,"% Inh of Gli1 reporter, Co-Culture N = 1","% Inh of Gli1 reporter, Co-Culture N = 2"
B1,20%,27%
B2,40%,32%
B3,30%,35%
B4,37%,23%
B5,38%,42%
B6,48%,19%
B7,31%,34%
B9,32%,24%
B8,31%,47%

# Target: T3, Shh-N in conditioned medium
# Experiment: cell-based or functional assay
# Remark: another data set of the same source
Binder,"% Inh of Gli1 reporter, CM N = 1","% Inh of Gli1 reporter, CM N = 3"
B1,73%,62%
B2,25%,43%
B3,32%,40%
B4,43%,28%
B5,52%,42%
B6,38%,40%
B7,46%,22%
B9,47%,43%
B8,21%,9%

# Target: T2, full length human Shh expressed on the …
# Experiment: FMAT, hybridoma supernatant on 293T cells transiently expressing human Shh
# Description: Cells were maintained at 1×10⁶ cells/ml overnight at 37° C., 5% CO₂. […] Supernatants were added to each well (10 μl/well) and incubated 1.5 hrs at RT. […] Plates were read on the FMAT 8100 HTS system from Applied Biosystems. Total signal (FL1×count) is defined as the number of positive cells in a well (count) multiplied by the average fluorescence intensity of the positive cells (FL1).
row,Binder,FL1 X COUNT
1,B1,304000
2,B2,696000
3,B3,327000
4,B4,370000
5,B5,89600
6,B6,1.11e+06
7,B7,625000
8,B9,319000
9,B8,110000
